# Data as given in US20150344540A1, “NOVEL GLP-1 RECEPTOR AGONISTS WITH CHOLESTEROL EFFLUX ACTIVITY” (NOVO NORDISK A/S, priority 2012, published 2015).
# Where no end group is shown, it is not given here. [ ]: non-standard residue; d: D form. Aib = CC(C)(N)C(=O)O
# B1: [Aib8,Glu23,Val25,Glu34,Lys35,Leu36,Lys37]-GLP-1-(7-37)-peptidyl-Glu-Leu-Val amide (peptide)
# peptide: H[Aib]EGTFTSDVSSYLEGEAVKEFIAWLVEKLKELV-NH2
# modifications: N-terminus assumed
# SMILES: CC[C@H](C)[C@H](NC(=O)[C@H](Cc1ccccc1)NC(=O)[C@H](CCC(=O)O)NC(=O)[C@H](CCCCN)NC(=O)[C@@H](NC(=O)[C@H](C)NC(=O)[C@H](CCC(=O)O)NC(=O)CNC(=O)[C@H](CCC(=O)O)NC(=O)[C@H](CC(C)C)NC(=O)[C@H](Cc1ccc(O)cc1)NC(=O)[C@H](CO)NC(=O)[C@H](CO)NC(=O)[C@@H](NC(=O)[C@H](CC(=O)O)NC(=O)[C@H](CO)NC(=O)[C@@H](NC(=O)[C@H](Cc1ccccc1)NC(=O)[C@@H](NC(=O)CNC(=O)[C@H](CCC(=O)O)NC(=O)C(C)(C)NC(=O)[C@@H](N)Cc1c[nH]cn1)[C@@H](C)O)[C@@H](C)O)C(C)C)C(C)C)C(=O)N[C@@H](C)C(=O)N[C@@H](Cc1c[nH]c2ccccc12)C(=O)N[C@@H](CC(C)C)C(=O)N[C@H](C(=O)N[C@@H](CCC(=O)O)C(=O)N[C@@H](CCCCN)C(=O)N[C@@H](CC(C)C)C(=O)N[C@@H](CCCCN)C(=O)N[C@@H](CCC(=O)O)C(=O)N[C@@H](CC(C)C)C(=O)N[C@H](C(N)=O)C(C)C)C(C)C
# B2: [Aib2,Gly16,Lys29,Aib30,Leu31,Glu32,Phe33,Leu34,Glu35,Leu36,Leu37]-Exendin-4-(1-37)-peptide amide (peptide)
# peptide: H[Aib]EGTFTSDLSKQMEGEAVRLFIEWLKNK[Aib]LEFLELL-NH2
# modifications: N-terminus assumed
# SMILES: CC[C@H](C)[C@H](NC(=O)[C@H](Cc1ccccc1)NC(=O)[C@H](CC(C)C)NC(=O)[C@H](CCCNC(=N)N)NC(=O)[C@@H](NC(=O)[C@H](C)NC(=O)[C@H](CCC(=O)O)NC(=O)CNC(=O)[C@H](CCC(=O)O)NC(=O)[C@H](CCSC)NC(=O)[C@H](CCC(N)=O)NC(=O)[C@H](CCCCN)NC(=O)[C@H](CO)NC(=O)[C@H](CC(C)C)NC(=O)[C@H](CC(=O)O)NC(=O)[C@H](CO)NC(=O)[C@@H](NC(=O)[C@H](Cc1ccccc1)NC(=O)[C@@H](NC(=O)CNC(=O)[C@H](CCC(=O)O)NC(=O)C(C)(C)NC(=O)[C@@H](N)Cc1c[nH]cn1)[C@@H](C)O)[C@@H](C)O)C(C)C)C(=O)N[C@@H](CCC(=O)O)C(=O)N[C@@H](Cc1c[nH]c2ccccc12)C(=O)N[C@@H](CC(C)C)C(=O)N[C@@H](CCCCN)C(=O)N[C@@H](CC(N)=O)C(=O)N[C@@H](CCCCN)C(=O)NC(C)(C)C(=O)N[C@@H](CC(C)C)C(=O)N[C@@H](CCC(=O)O)C(=O)N[C@@H](Cc1ccccc1)C(=O)N[C@@H](CC(C)C)C(=O)N[C@@H](CCC(=O)O)C(=O)N[C@@H](CC(C)C)C(=O)N[C@@H](CC(C)C)C(N)=O
# B3: [Aib8,Glu23,Val25,His31,Glu34,Lys35,Aib36,Lys37]-GLP-1-(7-37)-peptidyl-Glu-Phe-Leu amide (peptide)
# peptide: H[Aib]EGTFTSDVSSYLEGEAVKEFIAHLVEK[Aib]KEFL-NH2
# modifications: N-terminus assumed
# SMILES: CC[C@H](C)[C@H](NC(=O)[C@H](Cc1ccccc1)NC(=O)[C@H](CCC(=O)O)NC(=O)[C@H](CCCCN)NC(=O)[C@@H](NC(=O)[C@H](C)NC(=O)[C@H](CCC(=O)O)NC(=O)CNC(=O)[C@H](CCC(=O)O)NC(=O)[C@H](CC(C)C)NC(=O)[C@H](Cc1ccc(O)cc1)NC(=O)[C@H](CO)NC(=O)[C@H](CO)NC(=O)[C@@H](NC(=O)[C@H](CC(=O)O)NC(=O)[C@H](CO)NC(=O)[C@@H](NC(=O)[C@H](Cc1ccccc1)NC(=O)[C@@H](NC(=O)CNC(=O)[C@H](CCC(=O)O)NC(=O)C(C)(C)NC(=O)[C@@H](N)Cc1c[nH]cn1)[C@@H](C)O)[C@@H](C)O)C(C)C)C(C)C)C(=O)N[C@@H](C)C(=O)N[C@@H](Cc1c[nH]cn1)C(=O)N[C@@H](CC(C)C)C(=O)N[C@H](C(=O)N[C@@H](CCC(=O)O)C(=O)N[C@@H](CCCCN)C(=O)NC(C)(C)C(=O)N[C@@H](CCCCN)C(=O)N[C@@H](CCC(=O)O)C(=O)N[C@@H](Cc1ccccc1)C(=O)N[C@@H](CC(C)C)C(N)=O)C(C)C
# B4: [Asn14,Met16,Thr17,Asn18,Glu23,Val25,Glu34,Lys35,Gly36,Lys37]-GLP-1-(7-37)-peptidyl-Glu-Phe-Leu amide (peptide)
# peptide: HAEGTFTNDMTNYLEGEAVKEFIAWLVEKGKEFL-NH2
# B5: [Tyr12,Asn14,Thr17,Glu18,Glu23,Val25,Glu34,Lys35,Aib36,Lys37]-GLP-1-(7-37)-peptidyl-Glu-Phe-Leu amide (peptide)
# peptide: HAEGTYTNDVTEYLEGEAVKEFIAWLVEK[Aib]KEFL-NH2
# modifications: N-terminus assumed
# SMILES: CC[C@H](C)[C@H](NC(=O)[C@H](Cc1ccccc1)NC(=O)[C@H](CCC(=O)O)NC(=O)[C@H](CCCCN)NC(=O)[C@@H](NC(=O)[C@H](C)NC(=O)[C@H](CCC(=O)O)NC(=O)CNC(=O)[C@H](CCC(=O)O)NC(=O)[C@H](CC(C)C)NC(=O)[C@H](Cc1ccc(O)cc1)NC(=O)[C@H](CCC(=O)O)NC(=O)[C@@H](NC(=O)[C@@H](NC(=O)[C@H](CC(=O)O)NC(=O)[C@H](CC(N)=O)NC(=O)[C@@H](NC(=O)[C@H](Cc1ccc(O)cc1)NC(=O)[C@@H](NC(=O)CNC(=O)[C@H](CCC(=O)O)NC(=O)[C@H](C)NC(=O)[C@@H](N)Cc1c[nH]cn1)[C@@H](C)O)[C@@H](C)O)C(C)C)[C@@H](C)O)C(C)C)C(=O)N[C@@H](C)C(=O)N[C@@H](Cc1c[nH]c2ccccc12)C(=O)N[C@@H](CC(C)C)C(=O)N[C@H](C(=O)N[C@@H](CCC(=O)O)C(=O)N[C@@H](CCCCN)C(=O)NC(C)(C)C(=O)N[C@@H](CCCCN)C(=O)N[C@@H](CCC(=O)O)C(=O)N[C@@H](Cc1ccccc1)C(=O)N[C@@H](CC(C)C)C(N)=O)C(C)C
# B6: [Aib8,Trp23,Val25,Glu34,Lys35,Aib36,Lys37]-GLP-1-(7-37)-peptidyl-Glu-Phe-Leu amide (peptide)
# peptide: H[Aib]EGTFTSDVSSYLEGWAVKEFIAWLVEK[Aib]KEFL-NH2
# modifications: N-terminus assumed
# SMILES: CC[C@H](C)[C@H](NC(=O)[C@H](Cc1ccccc1)NC(=O)[C@H](CCC(=O)O)NC(=O)[C@H](CCCCN)NC(=O)[C@@H](NC(=O)[C@H](C)NC(=O)[C@H](Cc1c[nH]c2ccccc12)NC(=O)CNC(=O)[C@H](CCC(=O)O)NC(=O)[C@H](CC(C)C)NC(=O)[C@H](Cc1ccc(O)cc1)NC(=O)[C@H](CO)NC(=O)[C@H](CO)NC(=O)[C@@H](NC(=O)[C@H](CC(=O)O)NC(=O)[C@H](CO)NC(=O)[C@@H](NC(=O)[C@H](Cc1ccccc1)NC(=O)[C@@H](NC(=O)CNC(=O)[C@H](CCC(=O)O)NC(=O)C(C)(C)NC(=O)[C@@H](N)Cc1c[nH]cn1)[C@@H](C)O)[C@@H](C)O)C(C)C)C(C)C)C(=O)N[C@@H](C)C(=O)N[C@@H](Cc1c[nH]c2ccccc12)C(=O)N[C@@H](CC(C)C)C(=O)N[C@H](C(=O)N[C@@H](CCC(=O)O)C(=O)N[C@@H](CCCCN)C(=O)NC(C)(C)C(=O)N[C@@H](CCCCN)C(=O)N[C@@H](CCC(=O)O)C(=O)N[C@@H](Cc1ccccc1)C(=O)N[C@@H](CC(C)C)C(N)=O)C(C)C
# B7: [Aib8,Asp23,Val25,Asp27,Glu34,Lys35,Aib36,Lys37]-GLP-1-(7-37)-peptidyl-Glu-Phe-Leu amide (peptide)
# peptide: H[Aib]EGTFTSDVSSYLEGDAVKDFIAWLVEK[Aib]KEFL-NH2
# modifications: N-terminus assumed
# SMILES: CC[C@H](C)[C@H](NC(=O)[C@H](Cc1ccccc1)NC(=O)[C@H](CC(=O)O)NC(=O)[C@H](CCCCN)NC(=O)[C@@H](NC(=O)[C@H](C)NC(=O)[C@H](CC(=O)O)NC(=O)CNC(=O)[C@H](CCC(=O)O)NC(=O)[C@H](CC(C)C)NC(=O)[C@H](Cc1ccc(O)cc1)NC(=O)[C@H](CO)NC(=O)[C@H](CO)NC(=O)[C@@H](NC(=O)[C@H](CC(=O)O)NC(=O)[C@H](CO)NC(=O)[C@@H](NC(=O)[C@H](Cc1ccccc1)NC(=O)[C@@H](NC(=O)CNC(=O)[C@H](CCC(=O)O)NC(=O)C(C)(C)NC(=O)[C@@H](N)Cc1c[nH]cn1)[C@@H](C)O)[C@@H](C)O)C(C)C)C(C)C)C(=O)N[C@@H](C)C(=O)N[C@@H](Cc1c[nH]c2ccccc12)C(=O)N[C@@H](CC(C)C)C(=O)N[C@H](C(=O)N[C@@H](CCC(=O)O)C(=O)N[C@@H](CCCCN)C(=O)NC(C)(C)C(=O)N[C@@H](CCCCN)C(=O)N[C@@H](CCC(=O)O)C(=O)N[C@@H](Cc1ccccc1)C(=O)N[C@@H](CC(C)C)C(N)=O)C(C)C
# B8: [His14,Tyr20,Glu23,Val25,Glu34,Lys35,Aib36,Lys37]-GLP-1-(7-37)-peptidyl-Glu-Phe-Leu amide (peptide)
# peptide: HAEGTFTHDVSSYYEGEAVKEFIAWLVEK[Aib]KEFL-NH2
# modifications: N-terminus assumed
# SMILES: CC[C@H](C)[C@H](NC(=O)[C@H](Cc1ccccc1)NC(=O)[C@H](CCC(=O)O)NC(=O)[C@H](CCCCN)NC(=O)[C@@H](NC(=O)[C@H](C)NC(=O)[C@H](CCC(=O)O)NC(=O)CNC(=O)[C@H](CCC(=O)O)NC(=O)[C@H](Cc1ccc(O)cc1)NC(=O)[C@H](Cc1ccc(O)cc1)NC(=O)[C@H](CO)NC(=O)[C@H](CO)NC(=O)[C@@H](NC(=O)[C@H](CC(=O)O)NC(=O)[C@H](Cc1c[nH]cn1)NC(=O)[C@@H](NC(=O)[C@H](Cc1ccccc1)NC(=O)[C@@H](NC(=O)CNC(=O)[C@H](CCC(=O)O)NC(=O)[C@H](C)NC(=O)[C@@H](N)Cc1c[nH]cn1)[C@@H](C)O)[C@@H](C)O)C(C)C)C(C)C)C(=O)N[C@@H](C)C(=O)N[C@@H](Cc1c[nH]c2ccccc12)C(=O)N[C@@H](CC(C)C)C(=O)N[C@H](C(=O)N[C@@H](CCC(=O)O)C(=O)N[C@@H](CCCCN)C(=O)NC(C)(C)C(=O)N[C@@H](CCCCN)C(=O)N[C@@H](CCC(=O)O)C(=O)N[C@@H](Cc1ccccc1)C(=O)N[C@@H](CC(C)C)C(N)=O)C(C)C
# B9: [Asp9,Leu12,Ile16,Glu23,Val25,Glu34,Lys35,Aib36,Lys37]-GLP-1-(7-37)-peptidyl-Glu-Phe-Leu amide (peptide)
# peptide: HADGTLTSDISSYLEGEAVKEFIAWLVEK[Aib]KEFL-NH2
# Biological target: human GLP-1 receptor (human, UniProt P43220)
# Test: cell-based or functional assay
Binder,"CRE luciferase EC50, 0% HSA [nM]","CRE luciferase EC50, 1% HSA [nM]"
B1,0.155,0.082
B2,1.51,0.552
B3,0.066,0.02
B4,0.079,0.028
B5,0.202,0.104
B6,0.763,0.296
B7,4.88,0.776
B8,0.338,0.101
B9,0.222,0.062
